Measured values from the supplement of paper PMC11908140.

B1: library; numbered along this chain (parent)
chain: MRKPRAAVGSGHRKQAASQEGRQKHAKNNSQAKPSACDGLARQPEEVVLQASVSSYHLFRDVAEVTAFRGSLLSWYDQEKRDLPWRRRAEDEMDLDRRAYAVWVSEVMLQQTQVATVINYYTGWMQKWPTLQDLASASLEEVNQLWAGLGYYSRGRRLQEGARKVVEELGGHMPRTAETLQQLLPGVGRYTAGAIASIAFGQATGVVDGNVARVLCRVRAIGADPSSTLVSQQLWGLAQQLVDPARPGDFNQAAMELGATVCTPQRPLCSQCPVESLCRARQRVEQEQLLASGSLSGSPDVEECAPNTGQCHLCLPPSEPWDQTLGVVNFPRKASRKPPREESSATCVLEQPGALGAQILLVQRPNSGLLAGLWEFPSVTWEPSEQLQRKALLQELQRWAGPLPATHLRHLGEVVHTFSHIKLTYQVYGLALEGQTPVTTVPPGARWLTQEEFHTAAVSTAMKKVFRVYQGQQPGTCMGSKRSQVSSPCSRKKPRMGQQVLDNFFRSHISTDAHSLNSAAQ

Variants of: B1
Experiment: 8OG:A repair function score (normalized; synonymous = 0, nonsense = -1) (normalized log-likelihood score); higher = more repair activity (WT-like)
Conditions: with 8OG:A DNA repair reporter (GFP) in HEK-293 MUTYH KO cells
Procedure: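 Saturation mutagenesis (NNN codon scan) of the MUTYH cDNA (521-aa nuclear isoform NM_001048174.1 / NP_001041639), stably expressed under doxycycline induction in HEK-293 MUTYH knockout cells. Cells were co-transfected with an 8OG:A-bearing GFP repair reporter plus mCherry and sorted 72 h later into GFP+ and GFP− bins, three replicates per tile. The Rosace log2 enrichment (GFP+ vs GFP−) was converted per tile to a normalized function score with synonymous variants centered at 0 and nonsense variants (codons 1-471) at -1; low-abundance variants were removed.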

Compared with MRKPRAAVGSGHRKQAASQEGRQKHAKNNSQAKPSACDGLARQPEEVVLQASVSSYHLFRDVAEVTAFRGSLLSWYDQEKRDLPWRRRAEDEMDLDRRAYAVWVSEVMLQQTQVATVINYYTGWMQKWPTLQDLASASLEEVNQLWAGLGYYSRGRRLQEGARKVVEELGGHMPRTAETLQQLLPGVGEYTAGAIASIAFGQATGVVDGNVARVLCRVRAIGADPSSTLVSQQLWGLAQQLVDPARPGDFNQAAMELGATVCTPQRPLCSQCPVESLCRARQRVEQEQLLASGSLSGSPDVEECAPNTGQCHLCLPPSEPWDQTLGVVNFPRKASRKPPREESSATCVLEQPGALGAQILLVQRPNSGLLAGLWEFPSVTWEPSEQLQRKALLQELQRWAGPLPATHLRHLGEVVHTFSHIKLTYQVYGLALEGQTPVTTVPPGARWLTQEEFHTAAVSTAMKKVFRVYQGQQPGTCMGSKRSQVSSPCSRKKPRMGQQVLDNFFRSHISTDAHSLNSAAQ [R189E], MRKPRAAVGSGHRKQAASQEGRQKHAKNNSQAKPSACDGLARQPEEVVLQASVSSYHLFRDVAEVTAFRGSLLSWYDQEKRDLPWRRRAEDEMDLDRRAYAVWVSEVMLQQTQVATVINYYTGWMQKWPTLQDLASASLEEVNQLWAGLGYYSRGRRLQEGARKVVEELGGHMPRTAETLQQLLPGVGGYTAGAIASIAFGQATGVVDGNVARVLCRVRAIGADPSSTLVSQQLWGLAQQLVDPARPGDFNQAAMELGATVCTPQRPLCSQCPVESLCRARQRVEQEQLLASGSLSGSPDVEECAPNTGQCHLCLPPSEPWDQTLGVVNFPRKASRKPPREESSATCVLEQPGALGAQILLVQRPNSGLLAGLWEFPSVTWEPSEQLQRKALLQELQRWAGPLPATHLRHLGEVVHTFSHIKLTYQVYGLALEGQTPVTTVPPGARWLTQEEFHTAAVSTAMKKVFRVYQGQQPGTCMGSKRSQVSSPCSRKKPRMGQQVLDNFFRSHISTDAHSLNSAAQ [R189G] is higher in “8OG:A repair function score” value: -0.385 for the first, -0.299 for the second.

First: MRKPRAAVGSGHRKQAASQEGRQKHAKNNSQAKPSACDGLARQPEEVVLQASVSSYHLFRDVAEVTAFRGSLLSWYDQEKRDLPWRRRAEDEMDLDRRAYAVWVSEVMLQQTQVATVINYYTGWMQKWPTLQDLASASLEEVNQLWAGLGYYSRGRRLQEGARKVVEELGGHMPRTAETLQQLLPGVGHYTAGAIASIAFGQATGVVDGNVARVLCRVRAIGADPSSTLVSQQLWGLAQQLVDPARPGDFNQAAMELGATVCTPQRPLCSQCPVESLCRARQRVEQEQLLASGSLSGSPDVEECAPNTGQCHLCLPPSEPWDQTLGVVNFPRKASRKPPREESSATCVLEQPGALGAQILLVQRPNSGLLAGLWEFPSVTWEPSEQLQRKALLQELQRWAGPLPATHLRHLGEVVHTFSHIKLTYQVYGLALEGQTPVTTVPPGARWLTQEEFHTAAVSTAMKKVFRVYQGQQPGTCMGSKRSQVSSPCSRKKPRMGQQVLDNFFRSHISTDAHSLNSAAQ [R189H]
Second: MRKPRAAVGSGHRKQAASQEGRQKHAKNNSQAKPSACDGLARQPEEVVLQASVSSYHLFRDVAEVTAFRGSLLSWYDQEKRDLPWRRRAEDEMDLDRRAYAVWVSEVMLQQTQVATVINYYTGWMQKWPTLQDLASASLEEVNQLWAGLGYYSRGRRLQEGARKVVEELGGHMPRTAETLQQLLPGVGDYTAGAIASIAFGQATGVVDGNVARVLCRVRAIGADPSSTLVSQQLWGLAQQLVDPARPGDFNQAAMELGATVCTPQRPLCSQCPVESLCRARQRVEQEQLLASGSLSGSPDVEECAPNTGQCHLCLPPSEPWDQTLGVVNFPRKASRKPPREESSATCVLEQPGALGAQILLVQRPNSGLLAGLWEFPSVTWEPSEQLQRKALLQELQRWAGPLPATHLRHLGEVVHTFSHIKLTYQVYGLALEGQTPVTTVPPGARWLTQEEFHTAAVSTAMKKVFRVYQGQQPGTCMGSKRSQVSSPCSRKKPRMGQQVLDNFFRSHISTDAHSLNSAAQ [R189D]
The “8OG:A repair function score” value of the first is lower: -0.228 for the first, -0.22 for the second.

Going from MRKPRAAVGSGHRKQAASQEGRQKHAKNNSQAKPSACDGLARQPEEVVLQASVSSYHLFRDVAEVTAFRGSLLSWYDQEKRDLPWRRRAEDEMDLDRRAYAVWVSEVMLQQTQVATVINYYTGWMQKWPTLQDLASASLEEVNQLWAGLGYYSRGRRLQEGARKVVEELGGHMPRTAETLQQLLPGVGNYTAGAIASIAFGQATGVVDGNVARVLCRVRAIGADPSSTLVSQQLWGLAQQLVDPARPGDFNQAAMELGATVCTPQRPLCSQCPVESLCRARQRVEQEQLLASGSLSGSPDVEECAPNTGQCHLCLPPSEPWDQTLGVVNFPRKASRKPPREESSATCVLEQPGALGAQILLVQRPNSGLLAGLWEFPSVTWEPSEQLQRKALLQELQRWAGPLPATHLRHLGEVVHTFSHIKLTYQVYGLALEGQTPVTTVPPGARWLTQEEFHTAAVSTAMKKVFRVYQGQQPGTCMGSKRSQVSSPCSRKKPRMGQQVLDNFFRSHISTDAHSLNSAAQ [R189N] to MRKPRAAVGSGHRKQAASQEGRQKHAKNNSQAKPSACDGLARQPEEVVLQASVSSYHLFRDVAEVTAFRGSLLSWYDQEKRDLPWRRRAEDEMDLDRRAYAVWVSEVMLQQTQVATVINYYTGWMQKWPTLQDLASASLEEVNQLWAGLGYYSRGRRLQEGARKVVEELGGHMPRTAETLQQLLPGVGPYTAGAIASIAFGQATGVVDGNVARVLCRVRAIGADPSSTLVSQQLWGLAQQLVDPARPGDFNQAAMELGATVCTPQRPLCSQCPVESLCRARQRVEQEQLLASGSLSGSPDVEECAPNTGQCHLCLPPSEPWDQTLGVVNFPRKASRKPPREESSATCVLEQPGALGAQILLVQRPNSGLLAGLWEFPSVTWEPSEQLQRKALLQELQRWAGPLPATHLRHLGEVVHTFSHIKLTYQVYGLALEGQTPVTTVPPGARWLTQEEFHTAAVSTAMKKVFRVYQGQQPGTCMGSKRSQVSSPCSRKKPRMGQQVLDNFFRSHISTDAHSLNSAAQ [R189P], the “8OG:A repair function score” value rises from -0.421 to 0.136.

Compared with MRKPRAAVGSGHRKQAASQEGRQKHAKNNSQAKPSACDGLARQPEEVVLQASVSSYHLFRDVAEVTAFRGSLLSWYDQEKRDLPWRRRAEDEMDLDRRAYAVWVSEVMLQQTQVATVINYYTGWMQKWPTLQDLASASLEEVNQLWAGLGYYSRGRRLQEGARKVVEELGGHMPRTAETLQQLLPGVGFYTAGAIASIAFGQATGVVDGNVARVLCRVRAIGADPSSTLVSQQLWGLAQQLVDPARPGDFNQAAMELGATVCTPQRPLCSQCPVESLCRARQRVEQEQLLASGSLSGSPDVEECAPNTGQCHLCLPPSEPWDQTLGVVNFPRKASRKPPREESSATCVLEQPGALGAQILLVQRPNSGLLAGLWEFPSVTWEPSEQLQRKALLQELQRWAGPLPATHLRHLGEVVHTFSHIKLTYQVYGLALEGQTPVTTVPPGARWLTQEEFHTAAVSTAMKKVFRVYQGQQPGTCMGSKRSQVSSPCSRKKPRMGQQVLDNFFRSHISTDAHSLNSAAQ [R189F], MRKPRAAVGSGHRKQAASQEGRQKHAKNNSQAKPSACDGLARQPEEVVLQASVSSYHLFRDVAEVTAFRGSLLSWYDQEKRDLPWRRRAEDEMDLDRRAYAVWVSEVMLQQTQVATVINYYTGWMQKWPTLQDLASASLEEVNQLWAGLGYYSRGRRLQEGARKVVEELGGHMPRTAETLQQLLPGVGLYTAGAIASIAFGQATGVVDGNVARVLCRVRAIGADPSSTLVSQQLWGLAQQLVDPARPGDFNQAAMELGATVCTPQRPLCSQCPVESLCRARQRVEQEQLLASGSLSGSPDVEECAPNTGQCHLCLPPSEPWDQTLGVVNFPRKASRKPPREESSATCVLEQPGALGAQILLVQRPNSGLLAGLWEFPSVTWEPSEQLQRKALLQELQRWAGPLPATHLRHLGEVVHTFSHIKLTYQVYGLALEGQTPVTTVPPGARWLTQEEFHTAAVSTAMKKVFRVYQGQQPGTCMGSKRSQVSSPCSRKKPRMGQQVLDNFFRSHISTDAHSLNSAAQ [R189L] is lower in “8OG:A repair function score” value: -0.222 for the first, -0.316 for the second.

First: MRKPRAAVGSGHRKQAASQEGRQKHAKNNSQAKPSACDGLARQPEEVVLQASVSSYHLFRDVAEVTAFRGSLLSWYDQEKRDLPWRRRAEDEMDLDRRAYAVWVSEVMLQQTQVATVINYYTGWMQKWPTLQDLASASLEEVNQLWAGLGYYSRGRRLQEGARKVVEELGGHMPRTAETLQQLLPGVGQYTAGAIASIAFGQATGVVDGNVARVLCRVRAIGADPSSTLVSQQLWGLAQQLVDPARPGDFNQAAMELGATVCTPQRPLCSQCPVESLCRARQRVEQEQLLASGSLSGSPDVEECAPNTGQCHLCLPPSEPWDQTLGVVNFPRKASRKPPREESSATCVLEQPGALGAQILLVQRPNSGLLAGLWEFPSVTWEPSEQLQRKALLQELQRWAGPLPATHLRHLGEVVHTFSHIKLTYQVYGLALEGQTPVTTVPPGARWLTQEEFHTAAVSTAMKKVFRVYQGQQPGTCMGSKRSQVSSPCSRKKPRMGQQVLDNFFRSHISTDAHSLNSAAQ [R189Q]
Second: MRKPRAAVGSGHRKQAASQEGRQKHAKNNSQAKPSACDGLARQPEEVVLQASVSSYHLFRDVAEVTAFRGSLLSWYDQEKRDLPWRRRAEDEMDLDRRAYAVWVSEVMLQQTQVATVINYYTGWMQKWPTLQDLASASLEEVNQLWAGLGYYSRGRRLQEGARKVVEELGGHMPRTAETLQQLLPGVGMYTAGAIASIAFGQATGVVDGNVARVLCRVRAIGADPSSTLVSQQLWGLAQQLVDPARPGDFNQAAMELGATVCTPQRPLCSQCPVESLCRARQRVEQEQLLASGSLSGSPDVEECAPNTGQCHLCLPPSEPWDQTLGVVNFPRKASRKPPREESSATCVLEQPGALGAQILLVQRPNSGLLAGLWEFPSVTWEPSEQLQRKALLQELQRWAGPLPATHLRHLGEVVHTFSHIKLTYQVYGLALEGQTPVTTVPPGARWLTQEEFHTAAVSTAMKKVFRVYQGQQPGTCMGSKRSQVSSPCSRKKPRMGQQVLDNFFRSHISTDAHSLNSAAQ [R189M]
The “8OG:A repair function score” value of the first is higher: -0.208 for the first, -0.341 for the second.

Going from MRKPRAAVGSGHRKQAASQEGRQKHAKNNSQAKPSACDGLARQPEEVVLQASVSSYHLFRDVAEVTAFRGSLLSWYDQEKRDLPWRRRAEDEMDLDRRAYAVWVSEVMLQQTQVATVINYYTGWMQKWPTLQDLASASLEEVNQLWAGLGYYSRGRRLQEGARKVVEELGGHMPRTAETLQQLLPGVGIYTAGAIASIAFGQATGVVDGNVARVLCRVRAIGADPSSTLVSQQLWGLAQQLVDPARPGDFNQAAMELGATVCTPQRPLCSQCPVESLCRARQRVEQEQLLASGSLSGSPDVEECAPNTGQCHLCLPPSEPWDQTLGVVNFPRKASRKPPREESSATCVLEQPGALGAQILLVQRPNSGLLAGLWEFPSVTWEPSEQLQRKALLQELQRWAGPLPATHLRHLGEVVHTFSHIKLTYQVYGLALEGQTPVTTVPPGARWLTQEEFHTAAVSTAMKKVFRVYQGQQPGTCMGSKRSQVSSPCSRKKPRMGQQVLDNFFRSHISTDAHSLNSAAQ [R189I] to MRKPRAAVGSGHRKQAASQEGRQKHAKNNSQAKPSACDGLARQPEEVVLQASVSSYHLFRDVAEVTAFRGSLLSWYDQEKRDLPWRRRAEDEMDLDRRAYAVWVSEVMLQQTQVATVINYYTGWMQKWPTLQDLASASLEEVNQLWAGLGYYSRGRRLQEGARKVVEELGGHMPRTAETLQQLLPGVGKYTAGAIASIAFGQATGVVDGNVARVLCRVRAIGADPSSTLVSQQLWGLAQQLVDPARPGDFNQAAMELGATVCTPQRPLCSQCPVESLCRARQRVEQEQLLASGSLSGSPDVEECAPNTGQCHLCLPPSEPWDQTLGVVNFPRKASRKPPREESSATCVLEQPGALGAQILLVQRPNSGLLAGLWEFPSVTWEPSEQLQRKALLQELQRWAGPLPATHLRHLGEVVHTFSHIKLTYQVYGLALEGQTPVTTVPPGARWLTQEEFHTAAVSTAMKKVFRVYQGQQPGTCMGSKRSQVSSPCSRKKPRMGQQVLDNFFRSHISTDAHSLNSAAQ [R189K], the “8OG:A repair function score” value rises from -0.335 to -0.0681.
